The supplement of paper PMC11246515
± gives the standard deviation of the averaged measurements.

Test: total protein half-life in vivo (active degradation + dilution); higher = more stable protein
[1] = E. coli NCM3722 delta-clpP delta-lon delta-hslV, growth: N-lim chemostat, doubling time 6 h
[2] = E. coli NCM3722 delta-clpP, growth: N-lim chemostat, doubling time 6 h
[3] = E. coli NCM3722 delta-hslV, growth: N-lim chemostat, doubling time 6 h
[4] = E. coli NCM3722 delta-smpB, growth: N-lim chemostat, doubling time 6 h
[5] = wild type E. coli NCM3722, growth: C-lim chemostat, doubling time 3 h
[6] = wild type E. coli NCM3722, growth: C-lim chemostat, doubling time 6 h
[7] = wild type E. coli NCM3722, growth: C-lim chemostat, doubling time 12 h
[8] = wild type E. coli NCM3722, growth: N-lim chemostat, doubling time 6 h
[9] = wild type E. coli NCM3722, growth: N-lim chemostat, doubling time 12 h
[10] = wild type E. coli NCM3722, growth: P-lim chemostat, doubling time 6 h
[11] = wild type E. coli NCM3722, growth: P-lim chemostat, doubling time 12 h

Sequence	total protein half-life in vivo [1] [h]	total protein half-life in vivo [2] [h]	total protein half-life in vivo [3] [h]	total protein half-life in vivo (E. coli NCM3722 delta-lon, growth: N-lim chemostat, doubling time 6 h) [h]	total protein half-life in vivo [4] [h]	total protein half-life in vivo [5] [h]	total protein half-life in vivo [6] [h]	total protein half-life in vivo [7] [h]	total protein half-life in vivo [8] [h]	total protein half-life in vivo [9] [h]	total protein half-life in vivo [10] [h]	total protein half-life in vivo [11] [h]
MKLNIRAQTAQNQHNNSPIVLVHGLFGSLDNLGVLARDLVNDHNIIQVDMRNHGLSPRDPVMNYPAMAQDLVDTLDAQQIDKATFIGHSMGGKAVMALTALASDRIDKLVAIDIAPVDYHVRRHDEIFAAINAVSESDAQTRQQAAAIMRQHLNEEGVIQFLLKSFVDGEWRFNVPVLWDQYPHIVGWEKIPAWDHPALFIPGGNSPYVSEQYRDDLLAQFPQARAHVIAGAGHWVHAEKPDAVLRAIRRYLND	5.19 ± 0.27	5.13 ± 0.26	5.14 ± 0.17	5.82 ± 1.4	5.07 ± 0.61	3.04 ± 0.12	5.74 ± 0.4	9.16 ± 2.6	5.02 ± 0.39	10 ± 1.1	6.53 ± 0.95	12.4 ± 0.16
MAESTVTADSKLTSSDTRRRIWAIVGASSGNLVEWFDFYVYSFCSLYFAHIFFPSGNTTTQLLQTAGVFAAGFLMRPIGGWLFGRIADKHGRKKSMLLSVCMMCFGSLVIACLPGYETIGTWAPALLLLARLFQGLSVGGEYGTSATYMSEVAVEGRKGFYASFQYVTLIGGQLLALLVVVVLQHTMEDAALREWGWRIPFALGAVLAVVALWLRRQLDETSQQETRALKEAGSLKGLWRNRRAFIMVLGFTAAGSLCFYTFTTYMQKYLVNTAGMHANVASGIMTAALFVFMLIQPLIGALSDKIGRRTSMLCFGSLAAIFTVPILSALQNVSSPYAAFGLVMCALLIVSFYTSISGILKAEMFPAQVRALGVGLSYAVANAIFGGSAEYVALSLKSIGMETAFFWYVTLMAVVAFLVSLMLHRKGKGMRL [P0AEX3]					1.61 ± 0.23	2.88 ± 0.36	4.51	10 ± 2.4	2.01		4.35 ± 0.23	6.27 ± 0.29
MLERLSWKRLVLELLLCCLPAFILGAFFGYLPWFLLASVTGLLIWHFWNLLRLSWWLWVDRSMTPPPGRGSWEPLLYGLHQMQLRNKKRRRELGNLIKRFRSGAESLPDAVVLTTEEGGIFWCNGLAQQILGLRWPEDNGQNILNLLRYPEFTQYLKTRDFSRPLNLVLNTGRHLEIRVMPYTHKQLLMVARDVTQMHQLEGARRNFFANVSHELRTPLTVLQGYLEMMNEQPLEGAVREKALHTMREQTQRMEGLVKQLLTLSKIEAAPTHLLNEKVDVPMMLRVVEREAQTLSQKKQTFTFEIDNGLKVSGNEDQLRSAISNLVYNAVNHTPEGTHITVRWQRVPHGAEFSVEDNGPGIAPEHIPRLTERFYRVDKARSRQTGGSGLGLAIVKHAVNHHESRLNIESTVGKGTRFSFVIPERLIAKNSD	6.39 ± 0.09	6.38 ± 0.28	5.95 ± 1.3		6.31 ± 0.26	3.118 ± 0.019	5.82 ± 0.35	12.3 ± 1.7	6.4435 ± 0.0015	12.7 ± 2	6.19 ± 0.21	12.2 ± 0.24
MTTLKLDTLSDRIKAHKNALVHIVKPPVCTERAQHYTEMYQQHLDKPIPVRRALALAHHLANRTIWIKHDELIIGNQASEVRAAPIFPEYTVSWIEKEIDDLADRPGAGFAVSEENKRVLHEVCPWWRGQTVQDRCYGMFTDEQKGLLATGIIKAEGNMTSGDAHLAVNFPLLLEKGLDGLREEVAERRSRINLTVLEDLHGEQFLKAIDIVLVAVSEHIERFAALAREMAATETRESRRDELLAMAENCDLIAHQPPQTFWQALQLCYFIQLILQIESNGHSVSFGRMDQYLYPYYRRDVELNQTLDREHAIEMLHSCWLKLLEVNKIRSGSHSKASAGSPLYQNVTIGGQNLVDGQPMDAVNPLSYAILESCGRLRSTQPNLSVRYHAGMSNDFLDACVQVIRCGFGMPAFNNDEIVIPEFIKLGIEPQDAYDYAAIGCIETAVGGKWGYRCTGMSFINFARVMLAALEGGHDATSGKVFLPQEKALSAGNFNNFDEVMDAWDTQIRYYTRKSIEIEYVVDTMLEENVHDILCSALVDDCIERAKSIKQGGAKYDWVSGLQVGIANLGNSLAAVKKLVFEQGAIGQQQLAAALADDFDGLTHEQLRQRLINGAPKYGNDDDTVDTLLARAYQTYIDELKQYHNPRYGRGPVGGNYYAGTSSISANVPFGAQTMATPDGRKAHTPLAEGASPASGTDHLGPTAVIGSVGKLPTAAILGGVLLNQKLNPATLENESDKQKLMILLRTFFEVHKGWHIQYNIVSRETLLDAKKHPDQYRDLVVRVAGYSAFFTALSPDAQDDIIARTEHML	4.17											
MKKAKILSGVLLLCFSSPLISQAATLDVRGGYRSGSHAYETRLKVSEGWQNGWWASMESNTWNTIHDNKKENAALNDVQVEVNYAIKLDDQWTVRPGMLTHFSSNGTRYGPYVKLSWDATKDLNFGIRYRYDWKAYRQQDLSGDMSRDNVHRWDGYVTYHINSDFTFAWQTTLYSKQNDYRYANHKKWATENAFVLQYHMTPDITPYIEYDYLDRQGVYNGRDNLSENSYRIGVSFKL	4.55					3.093 ± 0.0091	6.86 ± 1.1					
MQFLNMFFFDIYPYIAGAVFLIGSWLRYDYGQYTWRAASSQMLDRKGMNLASNLFHIGILGIFVGHFFGMLTPHWMYEAWLPIEVKQKMAMFAGGASGVLCLIGGVLLLKRRLFSPRVRATTTGADILILSLLVIQCALGLLTIPFSAQHMDGSEMMKLVGWAQSVVTFHGGASQHLDGVAFIFRLHLVLGMTLFLLFPFSRLIHIWSVPVEYLTRKYQLVRARH										> 16		
MSTKPLFLLRKAKKSSGEPDVVLWASNDFESTCATLDYLIVKSGKKLSSYFKAVATNFPVVNDLPAEGEIDFTWSERYQLSKDSMTWELKPGAAPDNAHYQGNTNVNGEDMTEIEENMLLPISGQELPIRWLAQHGSEKPVTHVSRDGLQALHIARAEELPAVTALAVSHKTSLLDPLEIRELHKLVRDTDKVFPNPGNSNLGLITAFFEAYLNADYTDRGLLTKEWMKGNRVSHITRTASGANAGGGNLTDRGEGFVHDLTSLARDVATGVLARSMDLDIYNLHPAHAKRIEEIIAENKPPFSVFRDKFITMPGGLDYSRAIVVASVKEAPIGIEVIPAHVTEYLNKVLTETDHANPDPEIVDIACGRSSAPMPQRVTEEGKQDDEEKPQPSGTTAVEQGEAETMEPDATEHHQDTQPLDAQSQVNSVDAKYQELRAELHEARKNIPSKNPVDDDKLLAASRGEFVDGISDPNDPKWVKGIQTRDCVYQNQPETEKTSPDMNQPEPVVQQEPEIACNACGQTGGDNCPDCGAVMGDATYQETFDEESQVEAKENDPEEMEGAEHPHNENAGSDPHRDCSDETGEVADPVIVEDIEPGIYYGISNENYHAGPGISKSQLDDIADTPALYLWRKNAPVDTTKTKTLDLGTAFHCRVLEPEEFSNRFIVAPEFNRRTNAGKEEEKAFLMECASTGKTVITAEEGRKIELMYQSVMALPLGQWLVESAGHAESSIYWEDPETGILCRCRPDKIIPEFHWIMDVKTTADIQRFKTAYYDYRYHVQDAFYSDGYEAQFGVQPTFVFLVASTTIECGRYPVEIFMMGEEAKLAGQQEYHRNLRTLSDCLNTDEWPAIKTLSLPRWAKEYAND	6.07 ± 0.4	3.46				3.65 ± 0.15	4.2 ± 0.11	5.8 ± 1.9		> 16	2.43	4.82
